Patent US20140087993A1 (TUFTS MEDICAL CENTER, published 2014)
* marks the point of attachment. Palmitoyl = CCCCCCCCCCCCCCCC(=O)*

T1: protease-activated receptor 1 (PAR1), on cells (human, UniProt P25116 42-425)
T1 sequence (looked up): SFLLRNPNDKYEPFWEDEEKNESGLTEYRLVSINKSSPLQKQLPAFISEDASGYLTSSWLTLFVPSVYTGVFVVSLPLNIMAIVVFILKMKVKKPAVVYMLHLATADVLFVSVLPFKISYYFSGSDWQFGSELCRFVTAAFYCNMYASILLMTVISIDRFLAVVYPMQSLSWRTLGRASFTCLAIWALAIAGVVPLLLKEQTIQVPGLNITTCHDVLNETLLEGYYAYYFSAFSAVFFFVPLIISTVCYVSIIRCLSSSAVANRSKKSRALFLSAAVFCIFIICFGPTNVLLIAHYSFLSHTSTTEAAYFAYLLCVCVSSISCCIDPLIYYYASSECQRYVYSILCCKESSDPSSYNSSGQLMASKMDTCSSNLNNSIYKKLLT


Columns and labels:
[1] = biological target: T1, protease-activated receptor 1 (PAR1), …; assay: cell-based or functional assay
[2] = biological target: protease-activated receptor-2 (PAR2), wild type, on cells (human, UniProt P55085 37-397); assay: cell-based or functional assay

Binder	IC50, Ca++ mobilization by SFLLRN in human platelets [1] [µM]	IC50, thrombin-induced ERK1/2 phosphorylation in A549 cells [1] [µM]	calcium flux in SW620 cells, antagonist activity against SLIGRL [2] [% inhibition]	other results
Palmitoyl-KKSRALF-NH2 [P1pal-7]	0.55	0.2		
Palmitoyl-RSSAMDENSEKKRKQAIK-NH2 (SMILES CCCCCCCCCCCCCCCC(=O)N[C@@H](CCCNC(=N)N)C(=O)N[C@@H](CO)C(=O)N[C@@H](CO)C(=O)N[C@@H](C)C(=O)N[C@@H](CCSC)C(=O)N[C@@H](CC(=O)O)C(=O)N[C@@H](CCC(=O)O)C(=O)N[C@@H](CC(N)=O)C(=O)N[C@@H](CO)C(=O)N[C@@H](CCC(=O)O)C(=O)N[C@@H](CCCCN)C(=O)N[C@@H](CCCCN)C(=O)N[C@@H](CCCNC(=N)N)C(=O)N[C@@H](CCCCN)C(=O)N[C@@H](CCC(N)=O)C(=O)N[C@@H](C)C(=O)N[C@H](C(=O)N[C@@H](CCCCN)C(N)=O)[C@@H](C)CC) [P2pal-18Q]			29	
Palmitoyl-ILKMKVKKPAV-NH2 (SMILES CCCCCCCCCCCCCCCC(=O)N[C@H](C(=O)N[C@@H](CC(C)C)C(=O)N[C@@H](CCCCN)C(=O)N[C@@H](CCSC)C(=O)N[C@@H](CCCCN)C(=O)N[C@H](C(=O)N[C@@H](CCCCN)C(=O)N[C@@H](CCCCN)C(=O)N1CCC[C@H]1C(=O)N[C@@H](C)C(=O)N[C@H](C(N)=O)C(C)C)C(C)C)[C@@H](C)CC) [P1pal-i1-11]	1.3			
Palmitoyl-RSSAMDENSEKKRKSAIK-NH2 (SMILES CCCCCCCCCCCCCCCC(=O)N[C@@H](CCCNC(=N)N)C(=O)N[C@@H](CO)C(=O)N[C@@H](CO)C(=O)N[C@@H](C)C(=O)N[C@@H](CCSC)C(=O)N[C@@H](CC(=O)O)C(=O)N[C@@H](CCC(=O)O)C(=O)N[C@@H](CC(N)=O)C(=O)N[C@@H](CO)C(=O)N[C@@H](CCC(=O)O)C(=O)N[C@@H](CCCCN)C(=O)N[C@@H](CCCCN)C(=O)N[C@@H](CCCNC(=N)N)C(=O)N[C@@H](CCCCN)C(=O)N[C@@H](CO)C(=O)N[C@@H](C)C(=O)N[C@H](C(=O)N[C@@H](CCCCN)C(N)=O)[C@@H](C)CC) [P2pal-18S pepducin]			77	
Palmitoyl-NRSKKSSALF-NH2 (SMILES CCCCCCCCCCCCCCCC(=O)N[C@@H](CC(N)=O)C(=O)N[C@@H](CCCNC(=N)N)C(=O)N[C@@H](CO)C(=O)N[C@@H](CCCCN)C(=O)N[C@@H](CCCCN)C(=O)N[C@@H](CO)C(=O)N[C@@H](CO)C(=O)N[C@@H](C)C(=O)N[C@@H](CC(C)C)C(=O)N[C@@H](Cc1ccccc1)C(N)=O) [P1pal-10S]	0.7	0.8		
Palmitoyl-GDENSEKKRKQAIK-NH2 (SMILES CCCCCCCCCCCCCCCC(=O)NCC(=O)N[C@@H](CC(=O)O)C(=O)N[C@@H](CCC(=O)O)C(=O)N[C@@H](CC(N)=O)C(=O)N[C@@H](CO)C(=O)N[C@@H](CCC(=O)O)C(=O)N[C@@H](CCCCN)C(=O)N[C@@H](CCCCN)C(=O)N[C@@H](CCCNC(=N)N)C(=O)N[C@@H](CCCCN)C(=O)N[C@@H](CCC(N)=O)C(=O)N[C@@H](C)C(=O)N[C@H](C(=O)N[C@@H](CCCCN)C(N)=O)[C@@H](C)CC) [P2pal-14GQ]				IC50, calcium flux induced by 30 µM SLIGRL in SW620 cells [2]: 8000 µM
